Assay results: patent EP4741426A1 (Leto Laboratories Co., Ltd, dated 2026)

Molecular target: T1, Fc-fused CD215 fragment
T1 construct: also called CD215 fragment in L-unit (fused with hIgG4Fc); CD215 fragment fused with Fc
Assay: sandwich ELISA of the intact complex in mouse serum: one antibody captures the S-unit, the other detects the Fc portion

T1 sequence (chain, as listed by the source limits assumed): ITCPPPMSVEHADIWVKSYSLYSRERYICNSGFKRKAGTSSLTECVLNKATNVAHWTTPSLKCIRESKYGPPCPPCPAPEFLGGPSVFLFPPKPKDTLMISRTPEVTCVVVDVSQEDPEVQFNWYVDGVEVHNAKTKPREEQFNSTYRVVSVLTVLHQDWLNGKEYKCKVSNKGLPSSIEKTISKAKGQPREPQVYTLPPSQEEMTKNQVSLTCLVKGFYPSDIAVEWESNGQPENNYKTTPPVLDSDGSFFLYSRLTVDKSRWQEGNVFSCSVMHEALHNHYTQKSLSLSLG

B1: S-unit molecule (PM619) (ligand)
chain: APTSSSTKKTQLQLEHLLLDLQMILNGIQSMHIDATLYTESDVHPSCKVTAMKCFLLELQVISLESGDASIHDTVENLIILANNSLSSNGNVTESGCKECEELEEKNIVEFLNRFITFAQSIISTLT
notes: also called IL-2/15 chimera; modified IL-2 molecule
- binding result: binds
